Results reported in the RNAGym collection of RNA variant scans (doi:10.7554/elife.90254).

B1: OR4K15 (parent)
chain: GUUAACGGUCAUAGGCCAUGGAAACUAGGAGCACCAUUUCGCUGCCAGUGAAGAAAUGAACAAAGAAAAUCUGGGCCAGGCAGGCAUCAAAAGAAAUAGUCUUGCGCUCAACCAGAAAGUCUGUAAUCAUUUUAAGGGUA

Variants of: B1
Test: self-cleavage, relative activity (ratio to wild type); higher = more cleavage; in vitro, sequencing; the parent is a self-cleaving ribozyme

| Variant | self-cleavage |
| --- | --- |
| GUUAACGGUCAUAGGCCAUGGAAACUAGGAGCACCAUUUCGCCGCCAGUGAAGAAAUGAACAAAGAAAAUCUGGGCCAGGCAGGCAUCAAAAGAAAUAGUCUUGCGCUCAACCAGAAAGUCUGUAAUCGUUUUAAGGGUA [U43C A129G] | 1.1 |
| GUUAACGGUCAUAGGCCAUGGAAACUAGGAGCACCAUUUCGCCGCCAGUGAAGAAAUGAACAAAGAAAAUCUGGGCCAGGCAGGCAUCAAAAGAAAUAGUCUUGCGCUCUACCAGAAAGUCUGUAAUCAUUUUAAGGGUA [U43C A110U] | 1.68 |
| GUUAACGGUCAUAGGCCAUGGAAACUAGGAGCACCAUUUCGCCGCCAGUGAAGAAAUGAACAAAGAAAAUCUGGGCCAGGCAGGCAUCAAAAGAAAUAGUCUUGCGCUCAACCAGAAAGUCUGUAAUCAUUUUUAGGGUA [U43C A134U] | 2.04 |
| GUUAACGGUCAUAGGCCAUGGAAACUAGGAGCACCAUUUCGCCGCCAGUGAAGAAAUGAACAAAGAAAAUCUGGGCCAGGCAGGCAUCAAAAGGAAUAGUCUUGCGCUCAACCAGAAAGUCUGUAAUCAUUUUAAGGGUA [U43C A94G] | 1.78 |
| GUUAACGGUCAUAGGCCAUGGAAACUAGGAGCACCAUUUCGCCGCCAGUGAAGAAAUGAACAAAGAAAAUCUGGGCCAGGCAGGCAUCAAAAGUAAUAGUCUUGCGCUCAACCAGAAAGUCUGUAAUCAUUUUAAGGGUA [U43C A94U] | 1.77 |
| GUUAACGGUCAUAGGCCAUGGAAACUAGGAGCACCAUUUCGCCGCCAGUGAAGAAAUGAACAAAGAAAAUCUGGGCCAGGCAGGCCUCAAAAGAAAUAGUCUUGCGCUCAACCAGAAAGUCUGUAAUCAUUUUAAGGGUA [U43C A86C] | 1.4 |
| GUUAACGGUCAUAGGCCAUGGAAACUAGGAGCACCAUUUCGCCGCCAGUGAAGAAAUGAACAAAGAAAAUCUGGGCCAGGCAGGCAUUAAAAGAAAUAGUCUUGCGCUCAACCAGAAAGUCUGUAAUCAUUUUAAGGGUA [U43C C88U] | 1.59 |
| GUUAACGGUCAUAGGCCAUGGAAACUAGGAGCACCAUUUCGCCGCCAGUGAAGAAAUGAACAAAGAAGAUCUGGGCCAGGCAGGCAUCAAAAGAAAUAGUCUUGCGCUCAACCAGAAAGUCUGUAAUCAUUUUAAGGGUA [U43C A68G] | 1.21 |
| GUUAACGGUCAUAGGCCAUGGAAACUAGGAGCACCAUUUCGCCGCCAGUGAAGAAAUGAACAAAGAAUAUCUGGGCCAGGCAGGCAUCAAAAGAAAUAGUCUUGCGCUCAACCAGAAAGUCUGUAAUCAUUUUAAGGGUA [U43C A68U] | 1.74 |
| GUUAACGGUCAUAGGCCAUGGAAACUAGGAGCACCAUUUCGCCGCCAGUGAAGAAAUGAACAAAGAAAAUCUGGGCCAGGCAGGCAUCAAAAGAAAUAGUCUUGCGCUCAACCAGCAAGUCUGUAAUCAUUUUAAGGGUA [U43C A116C] | 0.07 |
| GUUAACGGUCAUAGGCCAUGGAAACUAGGAGCACCAUUUCGCCGCCAAUGAAGAAAUGAACAAAGAAAAUCUGGGCCAGGCAGGCAUCAAAAGAAAUAGUCUUGCGCUCAACCAGAAAGUCUGUAAUCAUUUUAAGGGUA [U43C G48A] | 1.32 |
| GUUAACGGUCAUAGGCCAUGGAAACUAGGAGCACCAUUUCGCCGCCAGUGAAGAAAUGAACAAAGAAAAUCUGGGCCAGGCAGGCAUCAAAAGAAAUUGUCUUGCGCUCAACCAGAAAGUCUGUAAUCAUUUUAAGGGUA [U43C A98U] | 1.68 |
| GUUAACGGUCAUAGGCCAUGGAAACUAGGAGCACCAUUUCGCCGCCAGUGAAGAAAUGAACAAAGAAAAUCUGGGCCAGGCUGGCAUCAAAAGAAAUAGUCUUGCGCUCAACCAGAAAGUCUGUAAUCAUUUUAAGGGUA [U43C A82U] | 0.18 |
| GUUAACGGUCAUAGGCCAUGGAAACUAGGAGCACCAUUUCGCCGCCAGUGAAGAAAUGAACAAAGAAAAUCUGGGCCAGGCAGGCAUCAAAAGAAAUAGUCUUGCGCUAAACCAGAAAGUCUGUAAUCAUUUUAAGGGUA [U43C C109A] | 0.36 |
| GUUAACGGUCAUAGGCCAUGGAAACUAGGAGCACCAUUUCGCCGCCAGUGAAGAAAUGAACAAAGAAAAUCUGGGCCAGGCAGGCAUCAAAAGAAAUAGUCUUGCGCUCAACCAGAGAGUCUGUAAUCAUUUUAAGGGUA [U43C A117G] | 1.75 |
| GUUAACGGUCAUAGGCCAUGGAAACUAGGAGCACCAUUUCGCCGCCAGUGAAGAAAUGAACAAAGAAAAUCUGGGCCAGGCAGGCAUCAAAAGAAAUAGUCUUGCGCUCAACCAGAUAGUCUGUAAUCAUUUUAAGGGUA [U43C A117U] | 1.17 |
| GUUAACGGUCAUAGGCCAUGGAAACUAGGAGCACCAUUUCGCCGCCAGUGAAGAAAUGAACAAAGAGAAUCUGGGCCAGGCAGGCAUCAAAAGAAAUAGUCUUGCGCUCAACCAGAAAGUCUGUAAUCAUUUUAAGGGUA [U43C A67G] | 1.39 |
| GUUAACGGUCAUAGGCCAUGGAAACUAGGAGCACCAUUUCGCCGCCAGUGAAGAAAUGAACAAAGAAAAUCUGGGCCAGGCAGGCAUCAAAAGAAAUAGUCUUGCGCUCAACCAGAAGGUCUGUAAUCAUUUUAAGGGUA [U43C A118G] | 1.02 |
| GUUAACGGUCAUAGGCCAUGGAAACUAGGAGCACCAUUUCGCCGCCAGUGAAGAAAUGAACAAAGAAAAUCUGGGCCAGGCAGGCAUCAAAAGAGAUAGUCUUGCGCUCAACCAGAAAGUCUGUAAUCAUUUUAAGGGUA [U43C A95G] | 2.15 |
| GUUAACGGUCAUAGGCCAUGGAAACUAGGAGCACCAUUUCGCCGCCAGUGAAGAAAUGAACAGAGAAAAUCUGGGCCAGGCAGGCAUCAAAAGAAAUAGUCUUGCGCUCAACCAGAAAGUCUGUAAUCAUUUUAAGGGUA [U43C A63G] | 1.8 |
| GUUAACGGUCAUAGGCCAUGGAAACUAGGAGCACCAUUUCGCCGCCAGUGAAGAAAUGAACAUAGAAAAUCUGGGCCAGGCAGGCAUCAAAAGAAAUAGUCUUGCGCUCAACCAGAAAGUCUGUAAUCAUUUUAAGGGUA [U43C A63U] | 0.91 |

| Variant | self-cleavage |
| --- | --- |
| GUUAACGGUCAUAGGCCAUGGAAACUAGGAGCACCAUUUCGCCGCCAGUGAAGAAAUGAACAAAGAAAAUCUGGGCCAGGCAGGCAUCAAAAGAAAUAGUCUUGCGCUCAACUAGAAAGUCUGUAAUCAUUUUAAGGGUA [U43C C113U] | 0.04 |
| GUUAACGGUCAUAGGCCAUGGAAACUAGGAGCACCAUUUCGCCGCCAGUGAAGAAAUGAACAAAGAAAAUCUGGGCCAGGCAGGCAUCAAAUGAAAUAGUCUUGCGCUCAACCAGAAAGUCUGUAAUCAUUUUAAGGGUA [U43C A92U] | 1.6 |
| GUUAACGGUCAUAGGCCAUGGAAACUAGGAGCACCAUUUCGCCGCCAGUGAAGAAAUGAACAAAGAAAAUCUGGGCCAGGCAGGCAUCAGAAGAAAUAGUCUUGCGCUCAACCAGAAAGUCUGUAAUCAUUUUAAGGGUA [U43C A90G] | 0.97 |
| GUUAACGGUCAUAGGCCAUGGAAACUAGGAGCACCAUUUCGCCGCCAGUGAAGAAAUGAACAAAGAAAAUCUGGGCCAGGCAGGCAUCAAAAGAAGUAGUCUUGCGCUCAACCAGAAAGUCUGUAAUCAUUUUAAGGGUA [U43C A96G] | 1.09 |
| GUUAACGGUCAUAGGCCAUGGAAACUAGGAGCACCAUUUCGCCGCCAGUGAAGAAAUGAACAAAGAAAAUCUGGGCCAGGCAGGCAUCAAAAGAACUAGUCUUGCGCUCAACCAGAAAGUCUGUAAUCAUUUUAAGGGUA [U43C A96C] | 1 |
| GUUAACGGUCAUAGGCCAUGGAAACUAGGAGCACCAUUUCGCCGCCAGUGAAGAAAUGAACAAAGAAAAUCUGGGCCAGGCAGGCAUCAAAAGAAAUAGUCUUGAGCUCAACCAGAAAGUCUGUAAUCAUUUUAAGGGUA [U43C C105A] | 0.02 |
| GUUAACGGUCAUAGGCCAUGGAAACUAGGAGCACCAUUUCGCCGCCAGUGAAGAAAUGAACAAAGAAAAUCUGGGCCCGGCAGGCAUCAAAAGAAAUAGUCUUGCGCUCAACCAGAAAGUCUGUAAUCAUUUUAAGGGUA [U43C A78C] | 0.29 |
| GUUAACGGUCAUAGGCCAUGGAAACUAGGAGCACCAUUUCGCCGCCAGUGAAGAAAUGAACAAAGAAAAUCUGGGCCGGGCAGGCAUCAAAAGAAAUAGUCUUGCGCUCAACCAGAAAGUCUGUAAUCAUUUUAAGGGUA [U43C A78G] | 0.26 |
| GUUAACGGUCAUAGGCCAUGGAAACUAGGAGCACCAUUUCGCCGCCAGUGAAGAAAUGAACAAAGAAAAUCUGGGCCAGGCAGGCAUCAAAAGAAAUAGUCUUGCGCUCAACCAGAAAGUUUGUAAUCAUUUUAAGGGUA [U43C C121U] | 2.03 |
| GUUAACGGUCAUAGGCCAUGGAAACUAGGAGCACCAUUUCGCCGUCAGUGAAGAAAUGAACAAAGAAAAUCUGGGCCAGGCAGGCAUCAAAAGAAAUAGUCUUGCGCUCAACCAGAAAGUCUGUAAUCAUUUUAAGGGUA [U43C C45U] | 1.6 |
| GUUAACGGUCAUAGGCCAUGGAAACUAGGAGCACCAUUUCGCCGACAGUGAAGAAAUGAACAAAGAAAAUCUGGGCCAGGCAGGCAUCAAAAGAAAUAGUCUUGCGCUCAACCAGAAAGUCUGUAAUCAUUUUAAGGGUA [U43C C45A] | 1.19 |
| GUUAACGGUCAUAGGCCAUGGAAACUAGGAGCACCAUUUCGCCGCCAGUGAAGAAAUGAACAAUGAAAAUCUGGGCCAGGCAGGCAUCAAAAGAAAUAGUCUUGCGCUCAACCAGAAAGUCUGUAAUCAUUUUAAGGGUA [U43C A64U] | 1.82 |
| GUUAACGGUCAUAGGCCAUGGAAACUAGGAGCACCAUUUCGCCGCCAGUGAAGAAAUGAACAAGGAAAAUCUGGGCCAGGCAGGCAUCAAAAGAAAUAGUCUUGCGCUCAACCAGAAAGUCUGUAAUCAUUUUAAGGGUA [U43C A64G] | 1.66 |
| GUUAACGGUCAUAGGCCAUGGAAACUAGGAGCACCAUUUCGCCGCCAGUGAAGAAAUGAACAAAGAAAAUCUGGGCCAGGCAGGCAUCAAGAGAAAUAGUCUUGCGCUCAACCAGAAAGUCUGUAAUCAUUUUAAGGGUA [U43C A91G] | 1.29 |
| GUUAACGGUCAUAGGCCAUGGAAACUAGGAGCACCAUUUCGCCGCCAGUGAAGAAAUGAACAAAGAAAAUCUGGGCCAGGCAGGCAUCAAAAGAAAUAGUCUUGCGCUCAACCGGAAAGUCUGUAAUCAUUUUAAGGGUA [U43C A114G] | 0.55 |
| GUUAACGGUCAUAGGCCAUGGAAACUAGGAGCACCAUUUCGCCGCCAGUGAAGAAAUAAACAAAGAAAAUCUGGGCCAGGCAGGCAUCAAAAGAAAUAGUCUUGCGCUCAACCAGAAAGUCUGUAAUCAUUUUAAGGGUA [U43C G58A] | 0.64 |
| GUUAACGGUCAUAGGCCAUGGAAACUAGGAGCACCAUUUCGCCGCCAGUGAAGAAAUUAACAAAGAAAAUCUGGGCCAGGCAGGCAUCAAAAGAAAUAGUCUUGCGCUCAACCAGAAAGUCUGUAAUCAUUUUAAGGGUA [U43C G58U] | 0.07 |
| GUUAACGGUCAUAGGCCAUGGAAACUAGGAGCACCAUUUCGCCGCCAGUGAAGAAAUGAACAAAGAAAAUCUGGGCCAGGCAGGCAUCAAAAGAAAUAGUCUUGCGCUCAACCAGAAAGUCUGUAAUCAUUUUAAGGGUU [U43C A140U] | 1.18 |
| GUUAACGGUCAUAGGCCAUGGAAACUAGGAGCACCAUUUCGCCGCCAGUGAAGAAAUGAACAAAGAAAAUCUGGGCCAGGCAGGCAUCGAAAGAAAUAGUCUUGCGCUCAACCAGAAAGUCUGUAAUCAUUUUAAGGGUA [U43C A89G] | 2.04 |
| GUUAACGGUCAUAGGCCAUGGAAACUAGGAGCACCAUUUCGCCGCCAGUGAAGAAAUGAACAAAGAAAUUCUGGGCCAGGCAGGCAUCAAAAGAAAUAGUCUUGCGCUCAACCAGAAAGUCUGUAAUCAUUUUAAGGGUA [U43C A69U] | 1.74 |
